Where “and” joins values, the source holds several entries; their conditions need not be identical. Equal values may be shown once. Read-outs that look alike come from different tables or passages of the source. Peptide text beside a SMILES is read from it.
Legend:
ACE (Sigma A 6778) = molecular target: T1, ACE (Sigma A 6778) (Oryctolagus cuniculus, UniProt P12822); assay: ACE-inhibitory activity, HHL substrate, hippuric acid by HPLC (method of Dragnes et al. / Cushman and Cheung); assay type: biochemical
T1 construct: purchased Sigma A 6778
T1 sequence (P12822 34-1310): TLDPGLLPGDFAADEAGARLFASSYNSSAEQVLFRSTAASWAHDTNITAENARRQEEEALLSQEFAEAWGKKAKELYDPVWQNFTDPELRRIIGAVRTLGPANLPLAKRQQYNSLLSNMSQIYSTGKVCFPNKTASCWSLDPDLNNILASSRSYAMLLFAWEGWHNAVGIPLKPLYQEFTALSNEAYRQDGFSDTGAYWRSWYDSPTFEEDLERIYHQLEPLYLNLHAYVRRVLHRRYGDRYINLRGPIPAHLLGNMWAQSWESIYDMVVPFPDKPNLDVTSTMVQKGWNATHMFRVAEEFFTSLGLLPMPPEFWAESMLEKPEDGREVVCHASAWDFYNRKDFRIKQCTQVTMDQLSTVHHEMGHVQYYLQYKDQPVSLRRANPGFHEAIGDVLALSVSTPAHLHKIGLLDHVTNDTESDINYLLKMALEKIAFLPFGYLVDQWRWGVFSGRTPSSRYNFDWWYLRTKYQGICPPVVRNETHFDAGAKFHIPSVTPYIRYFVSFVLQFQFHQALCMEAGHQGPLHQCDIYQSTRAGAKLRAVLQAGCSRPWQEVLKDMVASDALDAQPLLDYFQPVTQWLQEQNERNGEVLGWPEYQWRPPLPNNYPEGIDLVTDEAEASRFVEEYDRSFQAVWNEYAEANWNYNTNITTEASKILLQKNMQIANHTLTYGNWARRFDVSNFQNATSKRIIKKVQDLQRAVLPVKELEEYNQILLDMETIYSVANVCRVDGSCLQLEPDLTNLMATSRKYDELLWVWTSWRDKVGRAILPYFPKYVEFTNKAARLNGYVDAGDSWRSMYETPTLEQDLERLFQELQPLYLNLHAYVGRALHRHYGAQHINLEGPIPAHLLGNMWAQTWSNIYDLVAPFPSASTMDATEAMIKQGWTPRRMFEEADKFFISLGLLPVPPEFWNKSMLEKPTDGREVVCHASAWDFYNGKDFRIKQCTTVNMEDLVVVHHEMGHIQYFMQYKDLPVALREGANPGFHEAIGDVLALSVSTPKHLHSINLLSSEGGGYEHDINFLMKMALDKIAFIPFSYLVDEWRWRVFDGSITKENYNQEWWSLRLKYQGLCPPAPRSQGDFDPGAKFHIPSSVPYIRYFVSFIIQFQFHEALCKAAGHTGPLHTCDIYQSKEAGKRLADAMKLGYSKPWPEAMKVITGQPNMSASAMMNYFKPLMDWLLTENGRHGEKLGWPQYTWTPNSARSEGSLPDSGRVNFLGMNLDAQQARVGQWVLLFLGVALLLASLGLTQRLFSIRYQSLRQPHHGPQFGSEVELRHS
Source text: ACE-inhibitory activity may be assayed using known methods, for example based on the method reported by Cushman and Cheung (1971) by measuring the end product hippuric acid (HA) from the enzymatic reaction between ACE (Sigma A 6778) and the substrate HHL (Sigma H 1635). (CUSHMAN, D. W. & CHEUNG, H. S. (1971). Concentrations of Angiotensin-Converting Enzyme in Tissues of Rat. Biochimica Et Biophysica Acta 250(1), 261-265 and Dragnes et al. J Food Composition and Analysis 2009; 22: 714-17). A different suitable assay is disclosed by Vermeirssen et al. (2002), J. Biochem Biophys. Methods 51 (2002), pages 75-87, which is incorporated herein by reference. Briefly, this is a spectrophotometric method in which ACE inhibition is measured using the substrate furanacryloyl-Phe-Gly-Gly and rabbit lung acetone extract as the ACE source. The IC50 may be determined.
An FSY peptide was analysed via an enzyme assay wherein ACE produces hippuric acid (HA) from the substrate hippuryl-histidine-leucine (HHL). The HA concentration was determined by quantitative HPLC analyses and a decreased concentration was correlated with inhibitory effect. ACE-inhibitory activity was determined based on the method reported by Cushman and Cheung (1971) by measuring the end product hippuric acid (HA) from the enzymatic reaction between ACE (Sigma A 6778) and the substrate HHL (Sigma H 1635), essentially as described in Dragnes et al. J Food Composition and Analysis 2009; 22: 714-17. A 100 μl volume with 2 mM HHL in 100 mM sodium borate buffer pH 8,3 was pre-incubated at 37° C. for 30 minutes with 25 μl inhibitor (FSY peptide diluted in Sodium borate buffer). Then the assay was initiated by adding 50 μl ACE (10 mU). The enzymatic reaction was stopped by addition of 215 μl 1 M HCl.
Quantitative HPLC analyses were performed on a Shimadzu (Shimadzu Corporation, Japan), using a Symmetry-Shield reverse phase C-18 Intelligent Speed column. The HA was eluted at ambient temperature using a mobile phase that consisted of 0.05% aqueous trifluoroacetic acid and HPLC-grade acetonitrile. A 2 min linear gradient was used, beginning after 0.5 min isocratic elution with 5% acetonitrile and ending with 90% acetonitrile. The flow-rate was maintained at 2 mL min ? 7 1 and the UV absorption was measured at 228 nm.
Determinations of IC50 values depend on the precise assay conditions, which makes it difficult to make meaningful comparisons between IC50 values determined in separate assays. A comparative analysis was therefore carried out to compare the ACE-inhibitory activity of the FSY peptide to known ACE-inhibitory peptides. ACE-inhibitory activity was assayed using the method of Dragnes et al. described in Example 1.

[1] = molecular target: T2, Angiotensin I-converting enzyme (ACE) (Sigma A 6778) (UniProt P12822 34-1310, limits assumed); assay: cell-based or functional assay
T2 sequence (looked up): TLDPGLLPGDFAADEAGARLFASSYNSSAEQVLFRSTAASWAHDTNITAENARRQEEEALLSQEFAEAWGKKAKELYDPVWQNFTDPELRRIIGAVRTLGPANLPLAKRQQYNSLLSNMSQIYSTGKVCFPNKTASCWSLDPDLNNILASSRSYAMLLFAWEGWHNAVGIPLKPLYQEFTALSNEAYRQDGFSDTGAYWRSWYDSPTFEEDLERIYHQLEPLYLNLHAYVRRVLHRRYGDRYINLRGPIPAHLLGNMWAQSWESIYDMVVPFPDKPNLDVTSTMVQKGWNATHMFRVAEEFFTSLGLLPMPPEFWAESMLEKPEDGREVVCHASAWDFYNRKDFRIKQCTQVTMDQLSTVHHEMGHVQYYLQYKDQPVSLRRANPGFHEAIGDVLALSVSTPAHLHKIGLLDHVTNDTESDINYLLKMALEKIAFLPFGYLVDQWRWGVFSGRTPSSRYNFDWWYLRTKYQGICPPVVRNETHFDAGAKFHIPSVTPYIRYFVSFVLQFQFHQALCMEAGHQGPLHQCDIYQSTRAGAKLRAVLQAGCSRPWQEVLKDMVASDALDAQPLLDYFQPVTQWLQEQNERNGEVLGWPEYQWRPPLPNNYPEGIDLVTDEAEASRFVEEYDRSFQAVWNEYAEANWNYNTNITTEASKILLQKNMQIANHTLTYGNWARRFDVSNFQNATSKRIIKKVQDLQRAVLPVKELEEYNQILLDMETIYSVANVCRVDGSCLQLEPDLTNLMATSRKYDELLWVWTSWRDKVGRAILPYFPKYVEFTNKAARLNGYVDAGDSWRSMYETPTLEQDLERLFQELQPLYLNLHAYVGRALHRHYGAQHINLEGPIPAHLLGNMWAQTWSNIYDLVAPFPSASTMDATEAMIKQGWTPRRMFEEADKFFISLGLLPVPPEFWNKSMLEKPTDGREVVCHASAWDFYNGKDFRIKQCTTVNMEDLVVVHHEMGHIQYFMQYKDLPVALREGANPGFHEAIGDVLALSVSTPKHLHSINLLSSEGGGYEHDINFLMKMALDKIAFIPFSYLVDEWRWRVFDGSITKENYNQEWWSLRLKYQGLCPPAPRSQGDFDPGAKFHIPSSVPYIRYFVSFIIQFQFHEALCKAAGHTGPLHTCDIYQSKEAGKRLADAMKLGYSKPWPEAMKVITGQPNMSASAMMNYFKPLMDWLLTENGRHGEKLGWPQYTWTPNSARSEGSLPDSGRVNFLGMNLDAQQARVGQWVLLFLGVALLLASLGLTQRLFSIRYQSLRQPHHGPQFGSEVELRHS

[2] = molecular target: T3, ACE from rabbit lung acetone extract (rabbit, UniProt P12822 34-1310, limits assumed); assay: cell-based or functional assay
T3 sequence (looked up): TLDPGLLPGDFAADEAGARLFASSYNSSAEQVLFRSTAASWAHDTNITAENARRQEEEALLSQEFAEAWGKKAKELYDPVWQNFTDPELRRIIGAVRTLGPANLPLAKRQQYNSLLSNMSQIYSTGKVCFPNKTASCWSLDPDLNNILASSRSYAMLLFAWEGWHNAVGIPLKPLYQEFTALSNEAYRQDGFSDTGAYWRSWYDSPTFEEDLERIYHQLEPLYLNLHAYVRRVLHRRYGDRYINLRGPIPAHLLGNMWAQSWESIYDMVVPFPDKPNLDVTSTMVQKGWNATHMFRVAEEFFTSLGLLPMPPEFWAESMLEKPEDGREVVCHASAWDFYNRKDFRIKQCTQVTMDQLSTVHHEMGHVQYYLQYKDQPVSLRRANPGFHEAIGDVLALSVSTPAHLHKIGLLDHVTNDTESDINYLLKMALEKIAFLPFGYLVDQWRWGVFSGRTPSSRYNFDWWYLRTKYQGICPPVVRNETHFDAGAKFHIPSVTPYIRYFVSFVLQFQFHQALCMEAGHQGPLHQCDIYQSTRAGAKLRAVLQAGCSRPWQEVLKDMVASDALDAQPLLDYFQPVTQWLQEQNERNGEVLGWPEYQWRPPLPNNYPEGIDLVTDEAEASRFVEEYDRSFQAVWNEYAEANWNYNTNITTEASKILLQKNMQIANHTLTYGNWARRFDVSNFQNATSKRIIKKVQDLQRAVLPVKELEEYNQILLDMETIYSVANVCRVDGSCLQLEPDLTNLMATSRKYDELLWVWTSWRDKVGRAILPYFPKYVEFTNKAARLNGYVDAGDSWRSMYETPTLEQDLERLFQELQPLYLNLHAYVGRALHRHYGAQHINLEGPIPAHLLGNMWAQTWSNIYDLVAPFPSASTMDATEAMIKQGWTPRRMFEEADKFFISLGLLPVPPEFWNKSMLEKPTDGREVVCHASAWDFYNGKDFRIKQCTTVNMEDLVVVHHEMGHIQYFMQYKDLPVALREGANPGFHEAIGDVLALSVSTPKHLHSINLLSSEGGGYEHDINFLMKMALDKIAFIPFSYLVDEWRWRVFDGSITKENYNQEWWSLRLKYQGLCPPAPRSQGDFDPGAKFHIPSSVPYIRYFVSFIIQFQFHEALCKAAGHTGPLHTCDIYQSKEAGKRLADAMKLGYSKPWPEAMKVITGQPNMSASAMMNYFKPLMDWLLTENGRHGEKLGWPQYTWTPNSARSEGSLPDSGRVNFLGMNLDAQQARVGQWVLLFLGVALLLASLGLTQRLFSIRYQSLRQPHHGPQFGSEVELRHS

[3] = molecular target: T2, Angiotensin I-converting enzyme (ACE) …; assay: cell-based or functional assay; remark: listed apart in the source
[4] = comparative analysis, read-out: IC50 in μg/ml (converted)

Row | Molecule | IC50 (ACE (Sigma A 6778); [4]) [µM] | IC50 of ACE inhibition (method of Vermeirssen et al.) [2] [µM] | IC50 in µM (ACE inhibition, method of Dragnes et al.) [3] [µM] | IC50 in µg/ml (ACE inhibition, method of Dragnes et al.) [3] [µg/mL] | further results
1 | N[C@@H](Cc1ccccc1)C(=O)N[C@@H](CO)C(=O)N[C@@H](Cc1ccc(O)cc1)C(=O)O [FSY] (H-Phe-Ser-Tyr-OH; N-terminus and C-terminus assumed) | 2.17 | – | – | – | IC50 (ACE (Sigma A 6778); comparative analysis, read-out: IC50): 2.2 µM; IC50 (ACE (Sigma A 6778); typical measurements, read-out: IC50 with respect to ACE inhibition, method of Dragnes et al.): ~2.2 µM
2 | CC(C)[C@H](N)C(=O)N[C@@H](Cc1ccc(O)cc1)C(=O)O [VY, reference compound] (H-Val-Tyr-OH; N-terminus and C-terminus assumed) | 12.8 | – | – | – | –
3 | FTY [FTY peptide] | – | ~274 | – | – | IC50 of ACE inhibition (method of Dragnes et al.) [1]: ~59 µM
4 | FSY [FSY peptide] | – | ~7.7 | 2.2 | 0.9 | IC50 of ACE inhibition (hippuric acid from HHL, HPLC; method of Dragnes et al.) [1]: ~4 µM and 1.7 µM and ~2.2 µM
5 | VY | – | – | 13 | 3.6 | –
6 | IPP | – | – | 3.2 | 1.04 | –
